# Source: the nanobody polyreactivity screen of Harvey et al. (2022)
# Test: yeast display, Sf9 membrane polyspecificity reagent, FACS + sequencing; frameworks hold sequencing errors
# Procedure, shortened: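 Synthetic nanobody libraries on Saccharomyces cerevisiae BJ5465 were galactose-induced for 36–48 hours, stained 1 hour at 4 °C with 10% biotinylated, detergent-solubilized Sf9 membrane reagent and enriched on streptavidin microbeads. FACS then separated cells into low and high (top ~1%) gates by anti-HA (expression) and streptavidin (reagent binding) fluorescence. Genes were colony-PCR amplified, MiSeq 2 × 250 sequenced and CDR-length filtered. A clone's polyreactivity label is that of its gate of origin.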
row,Sequence,polyreactivity (PSR sort gate)
1,QDQLVESGGGLVQAGGSLRLSCAASGIILRYYVMGWYRQAPGKERELVAAITSRGGSTYYADSVKGRFTISRDNAKNTVYLQMNSLKPEDTAVYYCAAGYRNVNTFDYWGQGTQVTVSS,high polyreactivity
2,QVQLVESGGGFGQAGGSLRLSCAASGLIFRWYAMGWYRQAPGKERELVAAISWSGASTYYADSVKGRFTISRDNAKNTVYLQMNSLKPEDTAVYYCAADSAYWTYEYWGQGTQVTVSS,high polyreactivity
3,QVQLVESGGGLVQAGGSLRLSCAASGITLYFYARGWYRQAPGKERELVAAISRGGRTYYADSVKGRFTISRDNAKNTVYLQMNSLKPEDTAVYDCAARYTSEYSAFDYWGQGTQVTVSS,low polyreactivity
4,QVQLVESGGGLVQAGGSLRLSCAASGSTFYLYAMGWYRQAPGKERELVATITNGGGTNYADSVKGRFTISRDNAKNTVYLQMNSLKAEDTAVYYCAAKWYHRDGDYWGQGTQVTVSS,low polyreactivity
5,QVQLVESGGGLVQAGGSLRLSCAASGRIFTPYAMGWYRQAPGKERELVATISRGTSTSYADSVKGRFTISRDNAKNTVYLQMNSLKPEDTAVYYCAALGPRTTFRYTSYYYWGQGTQVTVSS,high polyreactivity
6,QVQLVESGGGLVQAGGSLRLSSAASGIIFAVYAMGWYRQAPGKERELVAAISTSGGRTYYADSVKGRFTISRDNAKNTVYLQMKSLKPEDTAVYYCAAPLRVSYDGMYYWGQGTQVTVSS,high polyreactivity
7,QVQLVESGGGLVQAGGSLRLSCAASGFIFWAYDMGWYRQAPGKERELVAGIDWSGGSTYYADSVKGRFTISRDNAKNTVYLQMNSLKPEDTAVYYCAADRLLYGGGREYWGQGTQVTVSS,high polyreactivity
8,QVQLVESGGGLVQAGGSLRLICAASGSTLIWNAMGWYRQAPGKEMELVAVISFSGVSTYYADSVKGRFTISRDNAKNTVYLQMNSLKPEDTAVYYCAAGRYLYNYYGYVDKYGYWGQGTQVTVSS,low polyreactivity
9,QDQLVESGGGLVQAGGSLRLSCAASGNIIRKYAMGWYRQAAGKEREFVAAISSSGGRTYYADSVKGRFTISRDNAKNTVYLQMNSLKPEDTAVYYCAAEDWSYYDYDYWGQGTQVTVSS,high polyreactivity
10,QVQLEESGGGLVQAGGSLRLSCAASGFTFTDYAMGWYRQAPGKERELVAVITYDSTYYADSVKGRFTISRDNAKNTVYLQMNSLKPEDTAVYYCAADSYDWGDFDYWGQGTQVTVSS,low polyreactivity
11,QVQLEESGGGLVQAGGSLRLSCAASALTIEYNAKGSYRQAPAKERELVATISWSDSTRYADSVKGRLTISRDNAKSTVYLQMNSLKPEYTAVYDSNADVYWAWWEFDYWGQGTQVTVSS,low polyreactivity
12,QVQLVESGGGLVQAGGSLRLSCAASGSTIWSNAMGWYIQAPGKERELVAVISGGTSTNYADSVKGRFTISRDNAKNTVYLQMNSLKPEDTAVYYCAADWGSYLILINDTEMDYWGQGTQVTVSS,low polyreactivity
13,QVQLVESGGGLVQAGGSLRLSCAASGSIFDDNAMGWYRQAPGKERELVAGISRGGSTNYADSVKGRFTISRDNANNTVYLQMNSLKPEDTAVYYCNKRYKPSWTTYDYWGQGTQVTVSS,low polyreactivity
14,QVQLVESGGGLVQAGGSLRLSCAASGGIFPYYAMGWYSQAPGKEMELVAGISQNDGRTYYADSVKGRFTISRDNAKNTVYLQMNSLKPEDTAVYYCATVYWYPRYGYWGQGTQVTVSS,low polyreactivity
15,QVQHVESGGGIDQAGGSLRLSCAASGSTSVQYAMGWYRQATGKERELVAAISLSVGSTYYADSVKGRFTISRDNAKITVYLQMNCLKPEDTAVYYCASGYPPEDPEDYWGQGTQVTVSS,low polyreactivity
16,QVQLVESGGGLVQAGGSLRLSCAASGSTYAMGWYRQAPGKERELVASITSRGGSTYYADSVKGRFTISRDNANNTVYLQMNSLKPEDTAVYYCAARWYYSYICYDYWRQGTQVTVSS,high polyreactivity
17,QDQLVESGGGLVQAGGSLRLSCAASGFTFGDNAMGWYRQAPGKERELVAAITSSGSTNYADSVKGRFTISRDNAKNTVYLQMNSLKPEDTAVYYCNAEDSVDAPVYKDLGSEYDSWGQGTQVTVSS,low polyreactivity
18,QVQLVESGGGLVQAGGSLRLSCAASGRTFRYYAKGWYRQAPGKERELVAAITVTVTSTFYADSVKGRFTISRDNAKNTVYLQMNSLKPEDTAVYYCAKVDRQSPGQYYYWGQGTQVTVSS,low polyreactivity
19,QVQLVESGGGLVQAGGSLRLSCAASGFTFTSNAMGWYRQAPGKEREFVADISNIGGDTTYADSVKGRFTISRDNAKNTVYLQMNSLKPEDTAVYYCNADFAFIENDYWGQGTQVTVSS,low polyreactivity
20,PLQLVESGGGLGQAGGSLRLSCAASGSTFGHNAMGWYRPAPGKERELVAAISISGGRTYYADSVKGRFTISRDNAKNTVYLQMISRKPEDTAVYYCAAEVWYVGDNYDYWGQGTQVTLSS,high polyreactivity
21,QVQHVESGGGLVQAGGSLRLSCAASGGTFRWNAMGWYRQAPGQERELVAAITKSGGSTYYADSVKGRFTISRDNAKNTVYLQMNSLKPEDTAVYYCATDYLRRRDYWGQGTQVTVSS,high polyreactivity
22,QVQLVESGGGLVQAGGSLRLSCAASGRTFFVYTMGWYRQAPGKERELVAAITSDTSTTYADSVKGRFTISRDNAKNTVYLQMNSLKPEDTAVYYCAAEGYVGYYDYDYWGQGTQVTVSS,low polyreactivity

row,Sequence,polyreactivity (PSR sort gate)
1,QVQLVESGGGLVQAGGSLRLSCAASGRTFPLNAMGWYRQAPGKERELVARISSNGGSTYYADSMKGRFTISRDNAKNTVYLQMNSLKPEDTAVYYCAARYYSRRGLYYWGQGTQVTVSS,high polyreactivity
2,QVQLVESGGGLVQAGGSLRLSCAASGRTFSYYAMGWYRQAPGKERELVAAITSGGGRTYYADSVKGRFTISRDNAKNTVYLQMNSLKPEDTAVYYCNALSTLYNGYDYWGQGTQVTVSS,high polyreactivity
3,QVQLVESGGGLVQAGGSLRLSCAASGSTFIGNAMGWYRQAPGKERELVAAITRSGGSTFYADSVKGRFTISRDNAKNTVYLQMNSLKPEDTAVYYCSAKGNPYRVPGSSYPKVNYWGQGTQVTVSS,high polyreactivity
4,QVQLVESGGGLVQAGGSLRLSCAASGSTFSSNTMGWYRQAPGKEREMVAAITRRGGSTYYADSVKGRFTISRDNAKNTVYLQMNCLKPEDTAVYYCAARAYGGYGYWGQGTQVPVSS,low polyreactivity
5,QVQLVESGGGLVQAGGSLRLSCAAYVFIFYVYAMGWYRQAHGKERELVAAISGGGDSTYYADSVKGRFTISRDNAKNTVYLQMNSLKPEDTAVYYCATRRYPEVVNGEYGYWGQGTQVTVSS,low polyreactivity
6,QVQLVESGGGLVQAGGSLRLSCAASGNIFAWSAMGWYRQAPGKERELVARITVGSTYYADSVKGRFTISRDNAKNTVYLQMNSLKPEDTAVYYCNKDSGEDDRWPYDYWGQGTQVTVSS,low polyreactivity
7,QVQLVESRGGIVQAGGSLRLSCAASGRIFNNYAMGCYRQAPGKERELDAAISGGGSTNYADSVKGRFTISRDNETNTVYLQMNSLKPEDTAVYYSATGYLKASRDLYETVPYDYWGQGTQVTVSS,low polyreactivity
8,QVQLVESVGGLLQAGGSLRLSCAASGSIFFVYTMGWYRQAPGKERELFATITDSDGGTYYADSVKGRFTISRDNAKNTVYVQMNSLKPEDTAVYYCAAEVEVYFAIYEYWGQGTQVTVSS,low polyreactivity
9,QVQLVESGGGLVQAGGSLRLSCAASGSIFYNNAMGWYRQAPGKERELVAAITIGGSTNYADSVKGRFTISRDNAKNTVYLQMNSLNPEDTAVYYCAAAVLYWVGYGYWGQGTQVTVSS,low polyreactivity
10,QVQLVESGGCLVQAGVSLRLSCAASGRIFAYYAMGWYRQAPRKERELVAAISRSGVSTYYADSVKGRFTISRDNAKNTVYIQMNSLKPEDTAVYYCAARWRSGFTSGDYWGQGTQVTVSS,low polyreactivity
11,QVQLVESGGGLVQAGGSLRLSCAASGFIFWDYALGWYRQAPGKEREFVANISRSVGSTYYADSVKGRFTISRDNAKNTVYLQMYTLKPEDTAVYYCAAVTWGEGFDYWGQGTQVTVSS,low polyreactivity
12,QLQLVESGGGLVQAGGSLRLSCAASGYTIIQYAMGWYRQAPGKERELVAGITWSGGSTYADSVKGRFSISRDNAKNTVYLQMNSLKPEDTAVYYCAADDRDIYQYGTPYGSGIRYDYWGQGTQVTVSS,low polyreactivity
13,QVQLVESGGGLVHAGGSLRLSCAASGRTFKIYAMGWYRQAPGKERELVATISWRGGSTYYADSVKGRFTISRDNAKNTVYLQMNSLKPEDTAVYYCAKALYVAGSAYRAGYGVRYDYWGQGTQVTVSS,low polyreactivity
14,QVQLVESGGGLVQAGGRLRLSCAASGLIFPAYAMGWYRQAPGKERELVATITWRGGSTYYADSVKGRFTISRDNAKNTVYLQMNSLKPEDTAVDYCATRPRYYYFRYDYWGQGTQVTVSS,high polyreactivity
15,QVQLVESGGGLVQAGGSLRLSCAASGRTFRYYAMGWYRQAPGKERELVADISWSGGRTSYADSVKGRFTISRDNAKNTVYLQMNSLKPEDTAVYYCAKVLYYPSHVYWGQGTQVTVSS,high polyreactivity
16,QVQLVESGGGLVQAGGSLRLSCAASGGIFAYNAMGWYRQAPGKERELVATISYSGGSTYYADSVKGRFTISRDNAKNTVYLQMNSLKPEDTAVYYCATRLYGWRGRYNYWGQGTQVTVSS,high polyreactivity
17,QVQLVESGGGLVQAGGSLRLSCAASGRIIKLYAMGWYRQAPGKEREFVAAITWSGGRTYYADSVKGRFTISRDNAKNTVYLQMNSLKPEDTAVYYCAAYDTYDWYDYWGQGTQVTVSS,high polyreactivity
18,QVQLVESGGGLVQAGGSLRLSCAASGIIFPYNAMGWYTQAPGKERELVAAITGGGSTYYADSVKGRFTISRDNAKNTVYLQMNSLKPEDTAVYYCAADRSGPGYDYWGQGTQVTVSS,low polyreactivity
19,QVQLVETGGGLVQAGVSLRLSSAASGITIGKNAMGWYRQEPGKESELVAAITRDGGTNYADSVKGRFTISRDNSKNTVYLQMNRLKPEDTAVYYCAKRAYFYYGRYDYWGQGTQVTVSS,low polyreactivity
20,QVQLVESGGGLVQAGGSLRLSCAASGRISLFNAMGWYRQAPGKERELVAAITYTGGSTYYADSVKGRFTISRDNAKNTVYLQMNSLKPVDTAVYYCAADPWTAKDDSWGQGTQVTVSS,high polyreactivity
21,QVHLVESGGGLVQAGGRLRLSCAASALTYAYYAMGRYREAPRKERELVAAITTGGTTNYADSVKGRFTISRDNAKNTVYLQMNSLKTEDTAVYYCARLYRSGYEYWGQGTQVTVSS,low polyreactivity
